The results in this text go back to US20040228866A1 (LUDWIG INSTITUTE FOR CANCER RESEARCH, published 2004).

For one test, the target named is T1, p63γ (UniProt Q9H3D4-5 40-487, limits assumed).
T1 sequence (looked up): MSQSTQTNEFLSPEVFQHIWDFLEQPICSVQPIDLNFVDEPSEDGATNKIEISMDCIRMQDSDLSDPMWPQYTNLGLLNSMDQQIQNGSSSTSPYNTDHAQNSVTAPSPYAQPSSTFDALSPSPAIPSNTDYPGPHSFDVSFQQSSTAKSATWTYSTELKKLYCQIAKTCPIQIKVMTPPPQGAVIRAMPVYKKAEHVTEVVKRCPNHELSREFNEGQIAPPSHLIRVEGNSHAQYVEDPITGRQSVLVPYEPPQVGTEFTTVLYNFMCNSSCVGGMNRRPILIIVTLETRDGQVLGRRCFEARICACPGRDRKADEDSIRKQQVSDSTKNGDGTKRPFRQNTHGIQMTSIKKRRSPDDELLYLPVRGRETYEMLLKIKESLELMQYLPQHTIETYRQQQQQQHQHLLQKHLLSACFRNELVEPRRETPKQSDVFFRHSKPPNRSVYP
Put plainly: cell-based or functional assay.

The next test addresses p53 (wild type) (human, UniProt P04637 1-393). Description: cell-based or functional assay.

Chain of p53 (wild type) (P04637 whole entry): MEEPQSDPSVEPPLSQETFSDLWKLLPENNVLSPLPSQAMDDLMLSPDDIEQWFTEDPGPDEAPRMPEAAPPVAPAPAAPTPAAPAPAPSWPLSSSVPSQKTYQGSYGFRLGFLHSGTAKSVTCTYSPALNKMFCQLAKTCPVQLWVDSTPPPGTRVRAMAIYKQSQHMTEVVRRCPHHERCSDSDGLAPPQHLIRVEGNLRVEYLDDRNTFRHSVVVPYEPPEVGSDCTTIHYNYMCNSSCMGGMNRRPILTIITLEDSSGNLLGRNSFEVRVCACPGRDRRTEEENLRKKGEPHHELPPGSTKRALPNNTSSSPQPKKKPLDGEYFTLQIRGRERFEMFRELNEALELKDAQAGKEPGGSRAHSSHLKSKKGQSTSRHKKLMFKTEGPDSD

B1: Apoptosis Stimulating Protein 1 (ASPP1) (other)
chain: MMPMILTVFLSNNEQILTEVPITPETTCRDVVEFCKEPGEGSCHLAEVWRGNERPIPFDHMMYEHLQIWGPRREEVKFFLRHEDSPTENSEQGGRQTQEQRTQRNVINVPGDKRTEYGVGNPRVELTLSELQDMAARQQQQIENQQQMLVAKEQRLHFLKQQERRQQQSISENEKLQKLKERVEAQENKLKKIRAMRGQVDYSKIMNGNLSAEIERFSAMFQEKKQEVQTAILRVDQLSQQLEDLKKGKLNGFQSYNGKLTGPAAVELKRLYQELQIRNQLNQEQNSKLQQQKELLNKRNMEVAMMDKRISELRERLYGKKIQLNRVNGTSSPQSPLSTSGRVAAVGPYIQVPSAGSFPVLGDPIKPQSLSIASNAAHGRSKSANDGNWPTLKQNSSSSVKPVQVAGADWKDPSVEGSVKQGTVSSQPVPFSALGPTEKPGIEIGKVPPPIPGVGKQLPPSYGTYPSPTPLGPGSTSSLERRKEGSLPRPSAGLPSRQRPTLLPATGSTPQPGSSQQIQQRISVPPSPTYPPAGPPAFPAGDSKPELPLTVAIRPFLADKGSRPQSPRKGPQTVNSSSIYSMYLQQATPPKNYQPAAHSALNKSVKAVYGKPVLPSGSTSPSPLPFLHGSLSTGTPQPQPPSESTEKEPEQDGPAAPADGSTVESLPRPLSPTKLTPIVHSPLRYQSDADLEALRRKLANAPRPLKKRSSITEPEGPGGPNIQKLLYQRFNTLAGGMEGTPFYQPSPSQDFMGTLADVDNGNTNANGNLEELPPAQPTAPLPAEPAPSSDANDNELPSPEPEELICPQTTHQTAEPAEDNNNNVATVPTTEQIPSPVAEAPSPGEEQVPPAPLPPASHPPATSTNKRTNLKKPNSERTGHGLRVRFNPLALLLDASLEGEFDLVQRIIYEVEDPSKPNDEGITPLHNAVCAGHHHIVKFLLDFGVNVNAADSDGWTPLHCAASCNSVHLCKQLVESGAAIFASTISDIETAADKCEEMEEGYIQCSQFLYGVQEKLGVMNKGVAYALWDYEAQNSDELSFHEGDALTILRRKDESETEWWWARLGDREGYVPKNLLGLYPRIKPRQRTLA
Take B1: the “transactivation function on the Bax promoter (Bax-luc reporter)” value in the test with p63γ was 4 fold; with p53 (wild type), ~6 fold.

B2: ASPP2 (1-1128) (other)
chain: MMPMFLTVYLSNNEQHFTEVPVTPETICRDVVDLCKEPGESDCHLAEVWCGSERPVADNERMFDVLQRFGSQRNEVRFFLRHERPPGRDIVSGPRSQDPSLKRNGVKVPGEYRRKENGVNSPRMDLTLAELQEMASRQQQQIEAQQQLLATKEQRLKFLKQQDQRQQQQVAEQEKLKRLKEIAENQEAKLKKVRALKGHVEQKRLSNGKLVEEIEQMNNLFQQKQRELVLAVSKVEELTRQLEMLKNGRIDSHHDNQSAVAELDRLYKELQLRNKLNQEQNAKLQQQRECLNKRNSEVAVMDKRVNELRDRLWKKKAALQQKENLPVSSDGNLPQQAASAPSRVAAVGPYIQSSTMPRMPSRPELLVKPALPDGSLVIQASEGPMKIQTLPNMRSGAASQTKGSKIHPVGPDWSPSNADLFPSQGSASVPQSTGNALDQVDDGEVPLREKEKKVRPFSMFDAVDQSNAPPSFGTLRKNQSSEDILRDAQVANKNVAKVPPPVPTKPKQINLPYFGQTNQPPSDIKPDGSSQQLSTVVPSMGTKPKPAGQQPRVLLSPSIPSVGQDQTLSPGSKQESPPAAAVRPFTPQPSKDTLLPPFRKPQTVAASSIYSMYTQQQAPGKNFQQAVQSALTKTHTRGPHFSSVYGKPVIAAAQNQQQHPENIYSNSQGKPGSPEPETEPVSSVQENHENERIPRPLSPTKLLPFLSNPYRNQSDADLEALRKKLSNAPRPLKKRSSITEPEGPNGPNIQKLLYQRTTIAAMETISVPSYPSKSASVTASSESPVEIQNPYLHVEPEKEVVSLVPESLSPEDVGNASTENSDMPAPSPGLDYEPEGVPDNSPNLQNNPEEPNPEAPHVLDVYLEEYPPYPPPPYPSGEPEGPGEDSVSMRPPEITGQVSLPPGKRTNLRKTGSERIAHGMRVKFNPLALLLDSSLEGEFDLVQRIIYEVDDPSLPNDEGITALHNAVCAGHTEIVKFLVQFGVNVNAADSDGWTPLHCAASCNNVQVCKFLVESGAAVFAMTYSDMQTAADKCEEMEEGYTQCSQFLYGVQEKMGIMNKGVIYALWDYEPQNDDELPMKEGDCMTIIHREDEDEIEWWWARLNDKEGYVPRNLLGLYPRIKPRQRSLA
Take B2: the “transactivation function on the Bax promoter (Bax-luc reporter)” value with p63γ is 7 fold; in the test with p53 (wild type) it was 20 fold.
